Test results as given in US20200087373A1 (UNIVERSITY OF COPENHAGEN, published 2020).
Ends that are not written are not given here. * marks the point of attachment. C16 diacid = O=C(O)CCCCCCCCCCCCCCC(=O)*; Stearoyl = CCCCCCCCCCCCCCCCCC(=O)*; Palmitoyl = CCCCCCCCCCCCCCCC(=O)*

T1: human GIP receptor (human, UniProt P48546 22-466)
T1 sequence (looked up): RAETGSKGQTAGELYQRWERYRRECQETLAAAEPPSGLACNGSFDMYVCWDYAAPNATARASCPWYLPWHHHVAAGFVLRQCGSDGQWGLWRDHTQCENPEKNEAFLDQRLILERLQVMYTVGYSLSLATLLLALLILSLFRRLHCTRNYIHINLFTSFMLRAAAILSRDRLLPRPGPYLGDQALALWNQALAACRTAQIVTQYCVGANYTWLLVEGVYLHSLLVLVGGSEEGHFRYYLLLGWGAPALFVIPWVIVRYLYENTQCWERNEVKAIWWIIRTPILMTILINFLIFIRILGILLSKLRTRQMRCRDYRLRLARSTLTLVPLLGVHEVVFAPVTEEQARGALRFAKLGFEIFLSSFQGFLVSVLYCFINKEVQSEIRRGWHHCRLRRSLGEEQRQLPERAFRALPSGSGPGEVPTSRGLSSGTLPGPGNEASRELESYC

B1: AT295 [hGIP(3-30)NH2[G4K]-C16diacid/4] (peptide)
peptide: EK(C16 diacid)TFISDYSIAMDKIHQQDFVNWLLAQK-NH2
modifications: N-terminus assumed
SMILES: CC[C@H](C)[C@H](NC(=O)[C@H](CO)NC(=O)[C@H](Cc1ccc(O)cc1)NC(=O)[C@H](CC(=O)O)NC(=O)[C@H](CO)NC(=O)[C@@H](NC(=O)[C@H](Cc1ccccc1)NC(=O)[C@@H](NC(=O)[C@H](CCCCNC(=O)CCCCCCCCCCCCCCC(=O)O)NC(=O)[C@@H](N)CCC(=O)O)[C@@H](C)O)[C@@H](C)CC)C(=O)N[C@@H](C)C(=O)N[C@@H](CCSC)C(=O)N[C@@H](CC(=O)O)C(=O)N[C@@H](CCCCN)C(=O)N[C@H](C(=O)N[C@@H](Cc1c[nH]cn1)C(=O)N[C@@H](CCC(N)=O)C(=O)N[C@@H](CCC(N)=O)C(=O)N[C@@H](CC(=O)O)C(=O)N[C@@H](Cc1ccccc1)C(=O)N[C@H](C(=O)N[C@@H](CC(N)=O)C(=O)N[C@@H](Cc1c[nH]c2ccccc12)C(=O)N[C@@H](CC(C)C)C(=O)N[C@@H](CC(C)C)C(=O)N[C@@H](C)C(=O)N[C@@H](CCC(N)=O)C(=O)N[C@@H](CCCCN)C(N)=O)C(C)C)[C@@H](C)CC
B2: AT160 [hGIP(3-30)NH2[H18K]-C18/18] (peptide)
peptide: EGTFISDYSIAMDKIK(Stearoyl)QQDFVNWLLAQK-NH2
modifications: N-terminus assumed
SMILES: CCCCCCCCCCCCCCCCCC(=O)NCCCC[C@H](NC(=O)[C@@H](NC(=O)[C@H](CCCCN)NC(=O)[C@H](CC(=O)O)NC(=O)[C@H](CCSC)NC(=O)[C@H](C)NC(=O)[C@@H](NC(=O)[C@H](CO)NC(=O)[C@H](Cc1ccc(O)cc1)NC(=O)[C@H](CC(=O)O)NC(=O)[C@H](CO)NC(=O)[C@@H](NC(=O)[C@H](Cc1ccccc1)NC(=O)[C@@H](NC(=O)CNC(=O)[C@@H](N)CCC(=O)O)[C@@H](C)O)[C@@H](C)CC)[C@@H](C)CC)[C@@H](C)CC)C(=O)N[C@@H](CCC(N)=O)C(=O)N[C@@H](CCC(N)=O)C(=O)N[C@@H](CC(=O)O)C(=O)N[C@@H](Cc1ccccc1)C(=O)N[C@H](C(=O)N[C@@H](CC(N)=O)C(=O)N[C@@H](Cc1c[nH]c2ccccc12)C(=O)N[C@@H](CC(C)C)C(=O)N[C@@H](CC(C)C)C(=O)N[C@@H](C)C(=O)N[C@@H](CCC(N)=O)C(=O)N[C@@H](CCCCN)C(N)=O)C(C)C
B3: AT298 [hGIP(3-30)NH2[I7K]-C16diacid/7] (peptide)
peptide: EGTFK(C16 diacid)SDYSIAMDKIHQQDFVNWLLAQK-NH2
modifications: N-terminus assumed
SMILES: CC[C@H](C)[C@H](NC(=O)[C@H](CO)NC(=O)[C@H](Cc1ccc(O)cc1)NC(=O)[C@H](CC(=O)O)NC(=O)[C@H](CO)NC(=O)[C@H](CCCCNC(=O)CCCCCCCCCCCCCCC(=O)O)NC(=O)[C@H](Cc1ccccc1)NC(=O)[C@@H](NC(=O)CNC(=O)[C@@H](N)CCC(=O)O)[C@@H](C)O)C(=O)N[C@@H](C)C(=O)N[C@@H](CCSC)C(=O)N[C@@H](CC(=O)O)C(=O)N[C@@H](CCCCN)C(=O)N[C@H](C(=O)N[C@@H](Cc1c[nH]cn1)C(=O)N[C@@H](CCC(N)=O)C(=O)N[C@@H](CCC(N)=O)C(=O)N[C@@H](CC(=O)O)C(=O)N[C@@H](Cc1ccccc1)C(=O)N[C@H](C(=O)N[C@@H](CC(N)=O)C(=O)N[C@@H](Cc1c[nH]c2ccccc12)C(=O)N[C@@H](CC(C)C)C(=O)N[C@@H](CC(C)C)C(=O)N[C@@H](C)C(=O)N[C@@H](CCC(N)=O)C(=O)N[C@@H](CCCCN)C(N)=O)C(C)C)[C@@H](C)CC
B4: AT294 [hGIP(3-30)NH2[E3K]-C16diacid/3] (peptide)
peptide: K(C16 diacid)GTFISDYSIAMDKIHQQDFVNWLLAQK-NH2
modifications: N-terminus assumed
SMILES: CC[C@H](C)[C@H](NC(=O)[C@H](CO)NC(=O)[C@H](Cc1ccc(O)cc1)NC(=O)[C@H](CC(=O)O)NC(=O)[C@H](CO)NC(=O)[C@@H](NC(=O)[C@H](Cc1ccccc1)NC(=O)[C@@H](NC(=O)CNC(=O)[C@@H](N)CCCCNC(=O)CCCCCCCCCCCCCCC(=O)O)[C@@H](C)O)[C@@H](C)CC)C(=O)N[C@@H](C)C(=O)N[C@@H](CCSC)C(=O)N[C@@H](CC(=O)O)C(=O)N[C@@H](CCCCN)C(=O)N[C@H](C(=O)N[C@@H](Cc1c[nH]cn1)C(=O)N[C@@H](CCC(N)=O)C(=O)N[C@@H](CCC(N)=O)C(=O)N[C@@H](CC(=O)O)C(=O)N[C@@H](Cc1ccccc1)C(=O)N[C@H](C(=O)N[C@@H](CC(N)=O)C(=O)N[C@@H](Cc1c[nH]c2ccccc12)C(=O)N[C@@H](CC(C)C)C(=O)N[C@@H](CC(C)C)C(=O)N[C@@H](C)C(=O)N[C@@H](CCC(N)=O)C(=O)N[C@@H](CCCCN)C(N)=O)C(C)C)[C@@H](C)CC
B5: AT159 [hGIP(3-30)NH2[K16R; H18K; K30R]-C16diacid/18] (peptide)
peptide: EGTFISDYSIAMDRIK(C16 diacid)QQDFVNWLLAQR-NH2
modifications: N-terminus assumed
SMILES: CC[C@H](C)[C@H](NC(=O)[C@H](CO)NC(=O)[C@H](Cc1ccc(O)cc1)NC(=O)[C@H](CC(=O)O)NC(=O)[C@H](CO)NC(=O)[C@@H](NC(=O)[C@H](Cc1ccccc1)NC(=O)[C@@H](NC(=O)CNC(=O)[C@@H](N)CCC(=O)O)[C@@H](C)O)[C@@H](C)CC)C(=O)N[C@@H](C)C(=O)N[C@@H](CCSC)C(=O)N[C@@H](CC(=O)O)C(=O)N[C@@H](CCCNC(=N)N)C(=O)N[C@H](C(=O)N[C@@H](CCCCNC(=O)CCCCCCCCCCCCCCC(=O)O)C(=O)N[C@@H](CCC(N)=O)C(=O)N[C@@H](CCC(N)=O)C(=O)N[C@@H](CC(=O)O)C(=O)N[C@@H](Cc1ccccc1)C(=O)N[C@H](C(=O)N[C@@H](CC(N)=O)C(=O)N[C@@H](Cc1c[nH]c2ccccc12)C(=O)N[C@@H](CC(C)C)C(=O)N[C@@H](CC(C)C)C(=O)N[C@@H](C)C(=O)N[C@@H](CCC(N)=O)C(=O)N[C@@H](CCCNC(=N)N)C(N)=O)C(C)C)[C@@H](C)CC
B6: AT163 [hGIP(3-30)NH2[H18K]-C16/16] (peptide)
peptide: EGTFISDYSIAMDK(Palmitoyl)IKQQDFVNWLLAQK-NH2
modifications: N-terminus assumed
SMILES: CCCCCCCCCCCCCCCC(=O)NCCCC[C@H](NC(=O)[C@H](CC(=O)O)NC(=O)[C@H](CCSC)NC(=O)[C@H](C)NC(=O)[C@@H](NC(=O)[C@H](CO)NC(=O)[C@H](Cc1ccc(O)cc1)NC(=O)[C@H](CC(=O)O)NC(=O)[C@H](CO)NC(=O)[C@@H](NC(=O)[C@H](Cc1ccccc1)NC(=O)[C@@H](NC(=O)CNC(=O)[C@@H](N)CCC(=O)O)[C@@H](C)O)[C@@H](C)CC)[C@@H](C)CC)C(=O)N[C@H](C(=O)N[C@@H](CCCCN)C(=O)N[C@@H](CCC(N)=O)C(=O)N[C@@H](CCC(N)=O)C(=O)N[C@@H](CC(=O)O)C(=O)N[C@@H](Cc1ccccc1)C(=O)N[C@H](C(=O)N[C@@H](CC(N)=O)C(=O)N[C@@H](Cc1c[nH]c2ccccc12)C(=O)N[C@@H](CC(C)C)C(=O)N[C@@H](CC(C)C)C(=O)N[C@@H](C)C(=O)N[C@@H](CCC(N)=O)C(=O)N[C@@H](CCCCN)C(N)=O)C(C)C)[C@@H](C)CC
B7: AT296 [hGIP(3-30)NH2[T5K]-C16diacid/5] (peptide)
peptide: EGK(C16 diacid)FISDYSIAMDKIHQQDFVNWLLAQK-NH2
modifications: N-terminus assumed
SMILES: CC[C@H](C)[C@H](NC(=O)[C@H](CO)NC(=O)[C@H](Cc1ccc(O)cc1)NC(=O)[C@H](CC(=O)O)NC(=O)[C@H](CO)NC(=O)[C@@H](NC(=O)[C@H](Cc1ccccc1)NC(=O)[C@H](CCCCNC(=O)CCCCCCCCCCCCCCC(=O)O)NC(=O)CNC(=O)[C@@H](N)CCC(=O)O)[C@@H](C)CC)C(=O)N[C@@H](C)C(=O)N[C@@H](CCSC)C(=O)N[C@@H](CC(=O)O)C(=O)N[C@@H](CCCCN)C(=O)N[C@H](C(=O)N[C@@H](Cc1c[nH]cn1)C(=O)N[C@@H](CCC(N)=O)C(=O)N[C@@H](CCC(N)=O)C(=O)N[C@@H](CC(=O)O)C(=O)N[C@@H](Cc1ccccc1)C(=O)N[C@H](C(=O)N[C@@H](CC(N)=O)C(=O)N[C@@H](Cc1c[nH]c2ccccc12)C(=O)N[C@@H](CC(C)C)C(=O)N[C@@H](CC(C)C)C(=O)N[C@@H](C)C(=O)N[C@@H](CCC(N)=O)C(=O)N[C@@H](CCCCN)C(N)=O)C(C)C)[C@@H](C)CC
B8: AT297 [hGIP(3-30)NH2[F6K]-C16diacid/6] (peptide)
peptide: EGTKISDYSIAMDKIHQQDFVNWLLAQK
modifications: C16-diacid (1,16-hexadecanedioic acid) on Lys 6 (GIP numbering); C-terminal amide

Target: T1, human GIP receptor
Test: cell-based or functional assay

Binder | cAMP agonism, EC50 (log) | cAMP agonism, Emax | cAMP agonism, nM (EC50) | cAMP antagonism, log (IC50) | cAMP antagonism, nM (IC50)
B1 | -8.6 log M | 78.6% | 2.6 nM | -8.1 log M | 9.5 nM
B2 | -6 log M | 13% | 962 nM | -7.4 log M | 38 nM
B3 | – | – | – | -7.5 log M | 33 nM
B4 | -8.7 log M | 74% | 1.8 nM | -8.6 log M | 2.5 nM
B5 | -8.7 log M | 6% | 2 nM | -8.2 log M | 6 nM
B6 | – | 0% | – | -6.7 log M | 212 nM
B7 | -8.6 log M | 6.7% | 2.6 nM | -7.8 log M | 14 nM
B8 | -7 log M | 19% | 9 nM | -6.2 log M | 603 nM
